Measured values taken from article PMC12830989, “Subcellular glycan-mannose receptor binding kinetics correlate with myeloid cell function” (Nature Communications, 2025).
sCy5 = sulfo-Cy5

Experiments:
[1] = system: MR^−/− BMDC; experiment: Glyco-PAINT-APP single-molecule glycan binding on live MR-/- BMDC; design: species or system mouse; conditions: Suppl. Fig 9, glycan SLP, median
Experimental: (§1) Single molecule imaging was performed on a Nikon Ti2 N-STORM system equipped with TIRF module, Z piezo element, perfect focus system for axial drift correction and an OkoLab incubator with temperature and CO2 controller (37 °C and 5% CO2) for live-cell imaging. Recordings were acquired using the 647 nm excitation laser (160 mW, 1.9 kW/cm^2). Upon laser excitation, fluorescence was collected by a 100x 1.49 NA oil-immersion objective, passed through a quad-band dichroic mirror (97335 Nikon), and detected by a Hamamatsu ORCA Flash 4.0 CMOS camera with 160 nm pixel size. The signal was collected using the following settings: 512 × 512 pixel region, no binning, pixel depth 16-bit, exposure time 50 ms, live-cell observation and 2D-STORM (lens out), zoom 1x, lens x0.4, and for live-cell observation at 37 °C, the correction collar was set to position 8160.
(§2) 5 x 10^4 CHO-MR or 1 x 10^5 WT, MR^−/− BMDC or BMDM were seeded in 8-well glass-bottomed microscopy slides (Ibidi, 80827) in complete medium. After equilibration in the microscope incubator, fluorescent glycan was added at 5 nM for CHO-MR and 10 nM for BMDC or BMDM experiments. Then, cells were brought into focus using brightfield illumination and 2000 frames (at 50 ms intervals) were recorded within a single field-of-view at 40–60% of maximum 647 nm laser power using TIRF illumination. For indicated experiments, Cytochalasin D (Focus Biomolecules) was added to a final concentration of 10 µM for 30 min prior to acquisition.
(§3) Processing of recordings using Glyco-PAINT-APP was performed as described in a step-by-step procedure in the Supplementary Software Manual in the Supplementary Information and accompanying Supplementary Videos 1 and 2. For the TrackMate processing, a batch file (Experiment Info.csv) containing the experiment metadata and tracking parameters was created. Threshold values were set to 5, 10 or 15 such that no more than 1.500.000 spots were detected. Recordings were then processed in TrackMate using the ‘Run TrackMate Batch’ plugin provided by the Glyco-PAINT-APP. Through this plugin, spot detection and tracking by TrackMate[70] was performed as indicated in the batch file using the Simple LAP tracker algorithm with a maximum frame gap of 3, a max linking distance of 0.6 μm and a gap closing max distance of 1.2 μm. Tracks with only two spots were discarded. For the parameter sensitivity analysis, each tracking or spot detection was varied as indicated, whilst the others were kept at aforementioned values (Basis scenario).
(§4) With the Glyco-PAINT-APP utility ‘Generate Squares’, a grid of squares was overlaid, and kinetic properties for each square were calculated. Default parameters for grid processing are (deviations are mentioned in figure captions): Nr of Squares in row 20, Minimum Tracks to Calculate Tau 20, Min allowable R Squared 0.1, Min Required Density Ratio 2, Maximum Allowable Variability 10 and Neighbour Mode Free.
(§5) For every recording, a background track count was calculated by averaging the track count of the 40 (10% of the total number of squares) least dense squares. Only squares for which the track count exceeded the Min Required Density Ratio of 2 were considered (and the remaining ignored as background). For each square, the variability was calculated and only squares for which the variability was less than the Maximum Allowable Variability of 10 were considered. For squares meeting both the Minimum Required Density Ratio and Maximum Allowable Variability criteria, and containing at least the Minimum Tracks to Calculate Tau kinetic parameters, including kon, koff and MSD were calculated as in Riera et al.[10], or copied from the TrackMate Tracks table output (for velocity, displacement, and track duration).

[2] = target: T1, mannose receptor (MR) on CHO-MR cells (Mus musculus, UniProt Q61830); experiment: Glyco-PAINT-APP single-molecule glycan binding on CHO-MR cells; conditions: Suppl. Fig 9, glycan SLP, median
T1 construct: expressed in transfected cells; host or cells: CHO (CHO-MR overexpression line, gift of Luisa Martinez-Pomares)
T1 sequence (Q61830 20-1456): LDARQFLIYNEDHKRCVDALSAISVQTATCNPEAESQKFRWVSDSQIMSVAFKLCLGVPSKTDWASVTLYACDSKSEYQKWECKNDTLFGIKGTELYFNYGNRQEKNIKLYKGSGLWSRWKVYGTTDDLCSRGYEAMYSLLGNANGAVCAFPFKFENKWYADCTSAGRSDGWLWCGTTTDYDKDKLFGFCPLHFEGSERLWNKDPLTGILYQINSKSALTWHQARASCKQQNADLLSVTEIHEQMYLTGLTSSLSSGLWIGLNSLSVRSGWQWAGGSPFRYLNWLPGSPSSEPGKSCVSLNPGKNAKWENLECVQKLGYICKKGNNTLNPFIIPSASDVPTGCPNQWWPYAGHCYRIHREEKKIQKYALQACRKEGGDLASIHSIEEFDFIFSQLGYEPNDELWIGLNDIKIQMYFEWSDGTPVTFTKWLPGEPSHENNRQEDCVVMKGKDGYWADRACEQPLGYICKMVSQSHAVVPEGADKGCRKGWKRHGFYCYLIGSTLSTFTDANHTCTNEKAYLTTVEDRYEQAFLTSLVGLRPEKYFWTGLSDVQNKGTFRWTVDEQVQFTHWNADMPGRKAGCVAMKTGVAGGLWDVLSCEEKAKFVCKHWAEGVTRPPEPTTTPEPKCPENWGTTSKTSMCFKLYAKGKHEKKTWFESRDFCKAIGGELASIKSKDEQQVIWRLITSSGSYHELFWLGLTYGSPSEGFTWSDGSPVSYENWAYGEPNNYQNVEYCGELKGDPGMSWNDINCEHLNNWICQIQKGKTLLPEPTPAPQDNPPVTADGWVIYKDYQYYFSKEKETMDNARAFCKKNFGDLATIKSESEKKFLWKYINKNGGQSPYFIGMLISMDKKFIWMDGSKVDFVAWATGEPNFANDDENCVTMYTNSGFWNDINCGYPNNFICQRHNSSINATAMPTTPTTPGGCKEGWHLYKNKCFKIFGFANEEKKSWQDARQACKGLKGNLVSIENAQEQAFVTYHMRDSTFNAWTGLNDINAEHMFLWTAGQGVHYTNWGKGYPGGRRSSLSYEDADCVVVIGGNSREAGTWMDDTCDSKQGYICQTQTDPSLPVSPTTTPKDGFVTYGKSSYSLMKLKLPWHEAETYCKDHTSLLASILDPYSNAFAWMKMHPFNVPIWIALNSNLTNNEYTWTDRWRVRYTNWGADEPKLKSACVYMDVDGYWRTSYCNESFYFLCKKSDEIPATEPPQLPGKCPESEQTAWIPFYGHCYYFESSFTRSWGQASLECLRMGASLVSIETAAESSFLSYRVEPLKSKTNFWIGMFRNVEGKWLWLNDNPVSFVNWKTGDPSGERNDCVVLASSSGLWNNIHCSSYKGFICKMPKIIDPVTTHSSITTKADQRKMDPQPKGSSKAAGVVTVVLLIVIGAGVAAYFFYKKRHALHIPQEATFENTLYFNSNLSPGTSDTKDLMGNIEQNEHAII
Experimental: as §1, §2, §3, §4, §5

koff−1 [1]	kon [1]	koff−1 ([2]; CHO-MR + CytD)	kon ([2]; CHO-MR + CytD)	koff−1 ([2]; CHO-MR)	kon ([2]; CHO-MR)	Substance
151 ms	2 evts μm−2 sec−1	85 ms	8.2 evts μm−2 sec−1	91 ms	6.2 evts μm−2 sec−1	Ac-Lys(Man)-Gly-Lys(Man)-TEG-Asp-Glu-Val-Ser-Gly-Leu-Glu-Gln-Leu-Glu-Ser-Ile-Ile-Asn-Phe-Glu-Lys-Leu-Ala-Ala-Ala-Ala-Ala-Lys(sCy5)-NH2 ({Ac-K(Man)-Gly-K(Man)-TEG}-DEVSGLEQLESIINFEKLAAAAAK(sCy5)-NH2) [2 Mono(2), bivalent monomannosylated OVA SLP with sulfo-Cy5]
180 ms	6.3 evts μm−2 sec−1	115 ms	8.9 evts μm−2 sec−1	117 ms	5.2 evts μm−2 sec−1	Ac-Lys(Man)-Lys(Man)-Lys(Man)-Lys(Man)-Lys(Man)-Lys(Man)-TEG-Asp-Glu-Val-Ser-Gly-Leu-Glu-Gln-Leu-Glu-Ser-Ile-Ile-Asn-Phe-Glu-Lys-Leu-Ala-Ala-Ala-Ala-Ala-Lys(sCy5)-NH2 ({Ac-K(Man)-K(Man)-K(Man)-K(Man)-K(Man)-K(Man)-TEG}-DEVSGLEQLESIINFEKLAAAAAK(sCy5)-NH2) [6 Mono(3), hexavalent monomannosylated OVA SLP with sulfo-Cy5]
182 ms	6.2 evts μm−2 sec−1	63 ms	3.9 evts μm−2 sec−1	68 ms	3.8 evts μm−2 sec−1	Ac-Lys(Man)-TEG-Asp-Glu-Val-Ser-Gly-Leu-Glu-Gln-Leu-Glu-Ser-Ile-Ile-Asn-Phe-Glu-Lys-Leu-Ala-Ala-Ala-Ala-Ala-Lys(sCy5)-NH2 ({Ac-K(Man)-TEG}-DEVSGLEQLESIINFEKLAAAAAK(sCy5)-NH2) [1 Mono(1), monovalent monomannosylated OVA SLP with sulfo-Cy5]
141 ms	4.6 evts μm−2 sec−1	108 ms	4.6 evts μm−2 sec−1	117 ms	5 evts μm−2 sec−1	Ac-Lys(triMan)-Gly-Lys(triMan)-TEG-Asp-Glu-Val-Ser-Gly-Leu-Glu-Gln-Leu-Glu-Ser-Ile-Ile-Asn-Phe-Glu-Lys-Leu-Ala-Ala-Ala-Ala-Ala-Lys(sCy5)-NH2 (DEVSGLEQLESIINFEKLAAAAAK; two Lys(triMan), TEG, sulfo-Cy5, C-amide; printed: Asp-Glu-Val-Ser-Gly-Leu-Glu-Gln-Leu-Glu-Ser-Ile-Ile-Asn-Phe-Glu-Lys-Leu-Ala-Ala-Ala-Ala-Ala-Lys) [2 Tri(5), bivalent trimannosylated OVA SLP with sulfo-Cy5]
115 ms	1.1 evts μm−2 sec−1	85 ms	4.8 evts μm−2 sec−1	101 ms	6.2 evts μm−2 sec−1	Ac-Lys(triMan)-Lys(triMan)-Lys(triMan)-Lys(triMan)-Lys(triMan)-Lys(triMan)-TEG-Asp-Glu-Val-Ser-Gly-Leu-Glu-Gln-Leu-Glu-Ser-Ile-Ile-Asn-Phe-Glu-Lys-Leu-Ala-Ala-Ala-Ala-Ala-Lys(sCy5)-NH2 (DEVSGLEQLESIINFEKLAAAAAK; six Lys(triMan), TEG, sulfo-Cy5, C-amide; printed: Asp-Glu-Val-Ser-Gly-Leu-Glu-Gln-Leu-Glu-Ser-Ile-Ile-Asn-Phe-Glu-Lys-Leu-Ala-Ala-Ala-Ala-Ala-Lys) [6 Tri(6), hexavalent trimannosylated OVA SLP with sulfo-Cy5]
160 ms	6 evts μm−2 sec−1	144 ms	7.1 evts μm−2 sec−1	79 ms	2.8 evts μm−2 sec−1	Ac-Lys(triMan)-TEG-Asp-Glu-Val-Ser-Gly-Leu-Glu-Gln-Leu-Glu-Ser-Ile-Ile-Asn-Phe-Glu-Lys-Leu-Ala-Ala-Ala-Ala-Ala-Lys(sCy5)-NH2 (DEVSGLEQLESIINFEKLAAAAAK; Ac-Lys(triMan)-TEG, sulfo-Cy5, C-amide; printed: Asp-Glu-Val-Ser-Gly-Leu-Glu-Gln-Leu-Glu-Ser-Ile-Ile-Asn-Phe-Glu-Lys-Leu-Ala-Ala-Ala-Ala-Ala-Lys) [1 Tri(4), monovalent trimannosylated OVA SLP with sulfo-Cy5]
